Laboratory results: paper PMC13676896 (2026)

Biological target: T1, MYO10 motor domain 1-741 (Homo sapiens, UniProt Q9HD67)
T1 chain: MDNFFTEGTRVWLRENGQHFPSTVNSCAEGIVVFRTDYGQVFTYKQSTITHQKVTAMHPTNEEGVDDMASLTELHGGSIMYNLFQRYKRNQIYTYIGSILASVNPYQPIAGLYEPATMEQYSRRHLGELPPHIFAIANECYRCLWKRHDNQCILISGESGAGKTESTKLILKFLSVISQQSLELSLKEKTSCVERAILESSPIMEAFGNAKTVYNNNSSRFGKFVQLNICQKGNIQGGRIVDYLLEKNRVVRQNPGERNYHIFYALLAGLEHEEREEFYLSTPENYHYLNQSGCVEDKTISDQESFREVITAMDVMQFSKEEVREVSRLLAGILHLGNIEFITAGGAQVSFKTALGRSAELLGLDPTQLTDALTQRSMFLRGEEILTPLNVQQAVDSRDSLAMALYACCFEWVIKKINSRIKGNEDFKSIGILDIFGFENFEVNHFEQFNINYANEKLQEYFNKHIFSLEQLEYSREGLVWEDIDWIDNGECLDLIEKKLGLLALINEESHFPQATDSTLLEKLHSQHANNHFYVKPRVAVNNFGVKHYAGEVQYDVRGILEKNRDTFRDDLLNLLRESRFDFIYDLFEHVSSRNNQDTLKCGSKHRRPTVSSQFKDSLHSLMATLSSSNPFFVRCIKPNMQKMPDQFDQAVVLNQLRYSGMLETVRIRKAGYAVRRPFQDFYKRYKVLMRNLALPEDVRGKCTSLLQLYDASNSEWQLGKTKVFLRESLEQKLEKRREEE
Assay: MST

Kd: 1160 nM
B1: CCT8 (protein)
chain: ALHVPKAPGFAQMLKEGAKHFSGLEEAVYRNIQACKELAQTTRTAYGPNGMNKMVINHLEKLFVTNDAATILRELEVQHPAAKMIVMASHMQEQEVGDGTNFVLVFAGALLELAEELLRIGLSVSEVIEGYEIACRKAHEILPNLVCCSAKNLRDIDEVSSLLRTSIMSKQYGNEVFLAKLIAQACVSIFPDSGHFNVDNIRVCKILGSGISSSSVLHGMVFKKETEGDVTSVKDAKIAVYSCPFDGMITETKGTVLIKTAEELMNFSKGEENLMDAQVKAIADTGANVVVTGGKVADMALHYANKYNIMLVRLNSKWDLRRLCKTVGATALPRLTPPVLEEMGHCDSVYLSEVGDTQVVVFKHEKEDGAISTIVLRGSTDNLMDDIERAVDDGVNTFKVLTRDKRLVPGGGATEIELAKQITSYGETCPGLEQYAIKKFAEAFEAIPRALAENSGVKANEVISKLYAVHQEGNKNVGLDIEAEVPAVKDMLEAGILDTYLGKYWAIKLATNAAVTVLRVDQIIMAKPAGGPKPPSGKKDWDDDQND
